{"source": "the domain aggregation screens of Martell et al. (2025)", "data": [{"assay": "soluble fraction after stress (log2 fold change); higher = more stays soluble; pooled small domains, quantitative proteomics", "conditions": "stress: pH 4", "outline": "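Pooled custom libraries of small protein domains were stressed at pH 4 and then measured by high-throughput quantitative proteomics. The fold change in the amount of each domain that stays soluble after the acid stress serves as a measure of aggregation propensity. Fold changes are given on a log2 scale, and higher values mean more of the domain stayed soluble.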", "values": [{"sequence": "HMQDTYQVKLLTNLNIRKSPNGTIVQKGGAKKGIIYTIVETSGTWGRLKSNAGWISVSDKYVTK", "soluble fraction (log2)": 0.102}, {"sequence": "HMQDVKRYLVNSNQLNVRTGPGKEFEISESLNKGDAVTLLHKESNGWWEVITSTGQGYVYSSMLTKDPW", "soluble fraction (log2)": 0.0322}, {"sequence": "HMQDVVERIKKYKQLFSITSEELSKRSGIPLGTLNKILSSSTKSIKTETLAAIAKGLDVSVSDLVGREK", "soluble fraction (log2)": -0.0189}, {"sequence": "HMQEAGKWLKKLRTERKITLEQLSKKTGLSVGFLSQFERGLTSIAIDTLEKIAAVFNVTIDYFISP", "soluble fraction (log2)": 0.22}, {"sequence": "HMQEEFVAPDVKDGAIVLHKAFGEGTVTKIDKAQKHIRVTFGVGEKTFIFPDAFKQGFLRMKG", "soluble fraction (log2)": 0.222}, {"sequence": "HMQEERLTFDTLLGISGIGPRLALAVLSRFTPGSLAAAVDAGDTKAFSAVPGVGNRTASRIILELKGKL", "soluble fraction (log2)": -0.238}, {"sequence": "HMQEGPGLVPDFRGQTMREVLRGGQSLGVRVAVDGTGLAVAQTPEPGSPLNKVSQVTVSFRPP", "soluble fraction (log2)": 0.22}, {"sequence": "HMQEINLIGVTGNDLERSALVKLLDGEIIKLSVGDNLNGGRVVDISAVTLTYLKSGQSITLKLPK", "soluble fraction (log2)": 0.116}, {"sequence": "HMQELGVISEGKYNIELNMVSWNDREPKYDIRSWAPDHSRMGKGISLTEEEMERLVELWNTRNE", "soluble fraction (log2)": -0.802}, {"sequence": "HMQELKWERNYKLVQDYIKQYGVLPSKNTKYANVSIGRWLTNQHELVKEDNLAPERFEKIKELDT", "soluble fraction (log2)": 0.303}, {"sequence": "HMQENDLGAVEKIVDDVLHDPKNAQAVADFKAGSEKVLGFLTGQVMKASRGKANPSVVQEVLRQKLKN", "soluble fraction (log2)": -0.0461}, {"sequence": "HMQENVIIYPNPTKSVIYLSEKVEFILYNILGEIIFIGDNNKIDLNSFDNGVYIFESGNVRTQIIK", "soluble fraction (log2)": 0.204}, {"sequence": "HMQEQIVQGIVKYFDAEKQFGFIAGDDGVDRFFNAKSIQGNAVKTGDRVRFLAISHIRGPRALKISA", "soluble fraction (log2)": -0.566}, {"sequence": "HMQEQSSYVGQFGTAATTLRPSGTVELEDGTRIDVVTVGEFIEKGEPVQVVRKDGTWLVVEKRRSK", "soluble fraction (log2)": 0.122}, {"sequence": "HMQERKYTVSFNTNGGSTINDQKITSGNVIISPGAPKRSGYTFVGWYYHGQPFDLNTKINQDYVLVAKWIK", "soluble fraction (log2)": 0.207}, {"sequence": "HMQETILFGQQKAINNLSSDTGLSENDLDSYLKKRYKKPLYQLTQSEGADIINGFQDGSLSKNSILDYIKP", "soluble fraction (log2)": 0.22}, {"sequence": "HMQEVKVRLKPDYLGEVLIKVISDKGELKAELFVSNSQVRSLLRAYAVEFQNQIRDQGYNFSEINVYR", "soluble fraction (log2)": -0.518}, {"sequence": "HMQFAEIPNFSEMALQILRLQADGLSITKIAEALHMNPRTVKYHAQENYRKLQASNKSEALLAARNLNL", "soluble fraction (log2)": -0.418}, {"sequence": "HMQFEIGDTVRVHVNIREGERERVQMFEGTVIAKRGSGVSETFTVRRVSYGVGVERVFPVNSPNV", "soluble fraction (log2)": 0.22}, {"sequence": "HMQFETVQDAFNHYRNASLEEIESRAAEIKGIIESDPEADVRALNIEIEGLHQAKQNILEKQKTK", "soluble fraction (log2)": -0.064}, {"sequence": "HMQFLGKVTVTHARQANLRAQPSMDAAIVGKVNPGEVYNVVSIPKTSWYEIQLQNGKTVFIAAGMVSFRM", "soluble fraction (log2)": 0.209}, {"sequence": "HMQFSAVVLDMETRRQVAGVAVYINPKGVVKTDMRGRFVIDGAFNSVTLVRQGYESLTLERSEMTDSIWM", "soluble fraction (log2)": -1.07}, {"sequence": "HMQGEASDAQLKAIFAIARKLGITDDFEVHRKASRLAGVPEPEVLPSLKSLTYAQASAVIKALQEELE", "soluble fraction (log2)": -0.0238}, {"sequence": "HMQGENDVTIDPKKLTIGDLAKEISKIEDSEELNNILVAEKEGKGRKGAINAITERIENVSGGTG", "soluble fraction (log2)": 0.22}, {"sequence": "HMQGLIGEQKAIQIALSRVPGAKPEHVRELKLDYDDGMQLYEGEIFYNFREYEFEINAVTGEVVGWEI", "soluble fraction (log2)": -0.839}, {"sequence": "HMQHRSRALHLQEELVRRYYDQAIAPFMIFWEMKANVTLDQLKELRAVVSPSLNEHPYTKQLDEYIRLAE", "soluble fraction (log2)": -0.275}, {"sequence": "HMQIEQVDYGTFMTMIDDKKIDKVEIKDNQILFIGKDDNKKYKTGIVQDPQLAERLHASGAVFSQDI", "soluble fraction (log2)": -0.158}, {"sequence": "HMQIIGEQNQKDFIALFGAILRMRNLLLSFDEFKGNELISERDLQDYLGRYQDLRDEWRNKRRER", "soluble fraction (log2)": -0.654}, {"sequence": "HMQINDSSVVQKAVNDVIDQNSKAVSDYWDGKEGAAKFLMGQVMKLTRGQANPDLANQLILTRLQQERV", "soluble fraction (log2)": 0.182}, {"sequence": "HMQISDEAALLAIVDRVIADNQGPLANYLGGKQSLLGWFVGQVMRATRGQAIPAVVNRLVGERLAAQREE", "soluble fraction (log2)": -0.278}, {"sequence": "HMQISDESQLREVVSKILEENEQSVIDYKNGKTRAMGFIIGQVMKATRGKANPQLVNEIVKEMLDE", "soluble fraction (log2)": -0.137}, {"sequence": "HMQISDTASIQEIAKEIIKSNPKAVEDYKKGKENALQFLVGQLMTKTKGTVHPGAARTILGDILK", "soluble fraction (log2)": -0.205}, {"sequence": "HMQISDTSELEAVVQDILKANMDVVAKIKAGKTNSANFLMGQVMKLTKGRAKPDTVLQLILDAVKQ", "soluble fraction (log2)": -0.374}, {"sequence": "HMQISLAAARVNAGLTQEEVAKAMKVGKQTIVSWEKGNSEPKMSQSRELSELYKIPLDYIFYP", "soluble fraction (log2)": 0.138}, {"sequence": "HMQITDSGAIETIIDKIIADNPGQVTQYLSGKDKVFGFFVGQTMKASQGKANPAEVNKILQEKLK", "soluble fraction (log2)": -0.029}, {"sequence": "HMQITQSSEPIDVSALRLGMFIHLEGGWLSHPFPRSSFKITSEDQLVTLRSLGISVLRWSPELSDPE", "soluble fraction (log2)": -1.46}, {"sequence": "HMQIVPVDYSTFMQSIDDKTVDHVEIQSNQILYTVKDDHKKYKTGIMNDPTLAQRLMESGATFTQD", "soluble fraction (log2)": 0.185}, {"sequence": "HMQKAEQIGSLLREKRKSMGLTQDELAQQVEVRRQTLADLELGKNVGSHLLIKVMEHLGVGFDLL", "soluble fraction (log2)": -0.962}, {"sequence": "HMQKEIKVPDVANMALSEAVEKLQNEGFKVADEQKEVSSDEIEEGKVVKTSPVAGTKKTKGSEITIYISSG", "soluble fraction (log2)": 0.22}, {"sequence": "HMQKFLEATGENRDAAVENALEQLGLERDDVSVEVLEIGKKGFLGIGATPARVRVTYEAPDI", "soluble fraction (log2)": -1.51}, {"sequence": "HMQKKEVTVPEVRSKSLKEAAQILSEQNLKYETEPVNVENPDMVVIDQFPKPGGKISEQSVIILYLR", "soluble fraction (log2)": 0.146}, {"sequence": "HMQKLNIEEQIVYDIIFKNKELSANEIQIKSGIKTSILNALLINLEIKQYIKLKFGNFYEIK", "soluble fraction (log2)": -1.63}, {"sequence": "HMQKMPEMQILPNGKVKLPDFSGINMRKAAELLQYGKLRLQPYGSGTAYQQKPAAGTEVDEGTVVEIWF", "soluble fraction (log2)": 0.189}, {"sequence": "HMQKNFYQILGVDSKASPATINAAYERAKSRVIQSGLEDPDTMALLRDAWETLADPGDRAAYDESLAT", "soluble fraction (log2)": -0.0938}, {"sequence": "HMQKPELLAPAGSLEKAKTAFKYGADAVYMGTSNLSLRSRVTVDDDELIKTIEYAHSINKKVYAALNIYAR", "soluble fraction (log2)": 0.134}, {"sequence": "HMQKPWFYESSGQRKGGFSEQEMVGLITDGEITHGAIVWRNGLSDWTKLEQTELAAHLDKTA", "soluble fraction (log2)": -1.06}, {"sequence": "HMQKRDQKKRANMLDSLKVGTRIVTIGGIFGEIAKIKDDRIRIKVAEDVEIWIRRAAVGTVIT", "soluble fraction (log2)": "≥ 0.43"}, {"sequence": "HMQKTPFEIMTIYKDQILEMLGKDLTATEISIVLKKKGEKVHPREIRKFQLQHYEEVQDMRKKWRE", "soluble fraction (log2)": -0.632}, {"sequence": "HMQKWILVNKQGRLSGILDHRAFNTRESATAWFQRTSDISGGTIKIDDYYYVLKNEEYKLLKE", "soluble fraction (log2)": -1.34}, {"sequence": "HMQKYEDIINVTRERLQNKFYSQTVIPTDDDIYIWLDKVAILEEIKLSKEDRQMLFNLLKKEAT", "soluble fraction (log2)": -0.879}, {"sequence": "HMQLGQMIVKLRKEQGLTQETFAKKFNVTRQTVSNWENEKSYPDLHTLVKISDEFHLSLDILLK", "soluble fraction (log2)": 0.272}, {"sequence": "HMQLGSILAYKFPQFGGIDGAWQVRDDSNGTGPYIAFWDAKTIGRGMPTEDELTAWAQEYEA", "soluble fraction (log2)": -1.38}, {"sequence": "HMQLPTPEDLKKRRNELGLTQSDLAKRAGVSQPLIARIESGDVDPRLSTVRKILDAFEEVEKEQQ", "soluble fraction (log2)": 0.0627}, {"sequence": "HMQLSASQQQILNHAAVNTDGKLVWFPETLKGGARKKVLDSLFSRALITTDGTHWFVAAEGYEALGIP", "soluble fraction (log2)": -0.0982}, {"sequence": "HMQLTDLSALEAIIKEVLAANPKSVEDYKSGKEKAFGSLVGQAMKATKGKANPETVNSLLRKNLN", "soluble fraction (log2)": -0.0162}, {"sequence": "HMQLTDSDFTRLYTYVKNSYGIDLSKKKQLISSRLTNMLIQQGYRDFTQYTDEIISGKNPEMVSAMLNRLT", "soluble fraction (log2)": 0.0695}, {"sequence": "HMQLTPAQHAILAKAIHSSDGKIEWFPDNVKGGARKKVLEGMFNRALITPDGEGWRIAAEGYDALGMPRP", "soluble fraction (log2)": 0.165}, {"sequence": "HMQLVGSSAAVLIPAPAGGLGKIRLEFRGQTIDLIAKATDGGALIEGGAVTIVDVRDGQADVSV", "soluble fraction (log2)": -0.329}, {"sequence": "HMQMMDATLKIPPSMGKLRGTLYELNSVTSEDVDENGQLALHVRLSSVDWQRLKKRFDSNLDELIVQKN", "soluble fraction (log2)": -0.427}, {"sequence": "HMQMPLTMATMGEVNKIVKVGGNEETRRFLANLGFVAGAEVVVLSKIGGNVIVNVKDSRVAVNEDMARHIM", "soluble fraction (log2)": -0.692}, {"sequence": "HMQMSDTAAIGKIVDEVFAENPAALEDYAKGKTNVVDWLTGQVMKKSRGQANPGIASELVQKRLADF", "soluble fraction (log2)": 0.101}, {"sequence": "HMQMSDTGAIEAMVKEALDENPQAIEDFKNGKGKALGFLMGQVMKKSKGQANGGIVNKLIKEELQKRIG", "soluble fraction (log2)": 0.315}, {"sequence": "HMQMTKSEFLDALRRALNGNMAAASVDDNIRFYDSYFYTEETKGRSEAEILSELGDPRILARTLIDAAD", "soluble fraction (log2)": -0.382}, {"sequence": "HMQNEIQQLAIDLIARAHKSGASDIHIVDTGTYTRIKFRVLGLLREDSQMEAETGRQMISTIYGILG", "soluble fraction (log2)": -0.19}, {"sequence": "HMQNEKLSYFVTETIVTERADLFITKKFPQFSRSQIQKLINSGNITINSNPIKASTEIINKDNIEITIPV", "soluble fraction (log2)": -0.814}, {"sequence": "HMQNESGLFTMSDLWEAGLMGSENASRKRAAVGAFLGIGFGNGKQFLKRLNHFGVTKEEWESALEQLGE", "soluble fraction (log2)": -0.447}, {"sequence": "HMQNEVMPYSTFLSEVNSGNVTKVKIDHEQLTGTLKSGKQFTTYILDAATLPSIVAEKGVEVEVVPP", "soluble fraction (log2)": 0.195}, {"sequence": "HMQNGNYVVQRQDSLWSIAARISGQTHQPIGEVMNHIKALNEHAFVGGNVNRLRTGTNLNLG", "soluble fraction (log2)": 0.125}, {"sequence": "HMQNKRQEQLLALLAERRDYMTSRQLAEILQVSDRTIRSDVEAINRRSSPPPIESNVRQGYRLNPEA", "soluble fraction (log2)": -0.0908}]}]}
